“Also recorded” adds a separate entry of the source.
Tests used:
[1] = system: AMO-1, HL-60, and T47D cell lines; assay: Omomyc cell viability assay, statements made for all three cell lines together; type: cell-based; settings: 48 h; ATP activity; AMO-1, HL-60, T47D
Description: (§1) Treatment of (A) AMO-1 (plasmacytoma), (B) HL-60 (promyelocytic leukemia), and (C) T47D (breast cancer) cell lines with FPP-1.1_Omomyc protein. After 48 h incubation, cell viability was assessed by measuring ATP activity. […] Results are representative of two independent experiments. Error bars represent standard deviation from the mean of duplicate samples.
Treatment of AMO-1 (plasmacytoma), HL-60 (promyelocytic leukemia), and T47D (breast cancer) cell lines with FPP1.1_Omomyc or small molecule inhibitors. After a 48 h incubation, the cell viability was assessed by measuring ATP activity. […] Results are from one independent experiment. Error bars represent standard deviation from the mean of duplicate samples.
(§2) All assays followed manufacturer's instructions.

[2] = system: AMO-1 (plasmacytoma); assay: Omomyc cell viability assay, ATP activity; type: cell-based; settings: AMO-1 cells only
Description: as §1, §2

B1: Omomyc: Myc dominant negative peptide (protein)
chain: GPGGSGTGATSDTEENVKRRTHNVLERQRRNELKRSFFALRDQIPELENNEKAPKVVILKKATAYILSVQAETQKLISEIDLLRKQNEQLKHKLEQLRNSCA
modifications: Amino acid sequence of Omomyc
notes: Myc dominant negative peptide
[1]
  effect on cell viability: no effect on cell viability; also recorded: poor potency; also recorded: minor effect on cell viability only at the highest concentrations
[2]
  doses at which a slight reduction in cell viability was seen: above 10 μM

— patent publication US20210087238A1, “CELL PENETRATING PEPTIDES AND RELATED COMPOSITIONS AND METHODS” (Phylogica Limited, priority 2017, published 2021)
